Tested on: peptide library, one residue held at a place counted from the S/T acceptor
Assay: relative phosphorylation of the sub-library (ratio to the mean residue at this position); higher = residue favoured
Settings: human
Method in brief: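 Relative sub-library phosphorylation is a ratio to the mean residue at the same position. Purified recombinant kinases were incubated under kinase-specific conditions with biotinylated degenerate peptide sub-libraries, each fixing one residue at one position around a central Ser/Thr, using 50 μM peptide and 50 μM ATP spiked with γ-32P-ATP for 90 min. Spots captured on streptavidin membranes were phosphorimaged and quantified by densitometry.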

Chain of MAPK1, construct: Full length (P28482 whole entry, looked up): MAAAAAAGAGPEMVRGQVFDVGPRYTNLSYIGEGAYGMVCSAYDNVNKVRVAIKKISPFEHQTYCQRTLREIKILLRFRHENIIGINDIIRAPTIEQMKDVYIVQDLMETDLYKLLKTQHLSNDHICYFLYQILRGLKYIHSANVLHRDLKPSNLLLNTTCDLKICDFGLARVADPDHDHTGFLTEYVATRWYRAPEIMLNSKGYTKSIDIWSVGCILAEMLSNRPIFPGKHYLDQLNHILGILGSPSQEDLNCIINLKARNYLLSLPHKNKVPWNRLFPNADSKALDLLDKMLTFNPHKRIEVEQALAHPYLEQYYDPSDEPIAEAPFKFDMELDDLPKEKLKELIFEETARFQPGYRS
Chain of MAP4K1, construct: Full length (Q92918 whole entry, looked up): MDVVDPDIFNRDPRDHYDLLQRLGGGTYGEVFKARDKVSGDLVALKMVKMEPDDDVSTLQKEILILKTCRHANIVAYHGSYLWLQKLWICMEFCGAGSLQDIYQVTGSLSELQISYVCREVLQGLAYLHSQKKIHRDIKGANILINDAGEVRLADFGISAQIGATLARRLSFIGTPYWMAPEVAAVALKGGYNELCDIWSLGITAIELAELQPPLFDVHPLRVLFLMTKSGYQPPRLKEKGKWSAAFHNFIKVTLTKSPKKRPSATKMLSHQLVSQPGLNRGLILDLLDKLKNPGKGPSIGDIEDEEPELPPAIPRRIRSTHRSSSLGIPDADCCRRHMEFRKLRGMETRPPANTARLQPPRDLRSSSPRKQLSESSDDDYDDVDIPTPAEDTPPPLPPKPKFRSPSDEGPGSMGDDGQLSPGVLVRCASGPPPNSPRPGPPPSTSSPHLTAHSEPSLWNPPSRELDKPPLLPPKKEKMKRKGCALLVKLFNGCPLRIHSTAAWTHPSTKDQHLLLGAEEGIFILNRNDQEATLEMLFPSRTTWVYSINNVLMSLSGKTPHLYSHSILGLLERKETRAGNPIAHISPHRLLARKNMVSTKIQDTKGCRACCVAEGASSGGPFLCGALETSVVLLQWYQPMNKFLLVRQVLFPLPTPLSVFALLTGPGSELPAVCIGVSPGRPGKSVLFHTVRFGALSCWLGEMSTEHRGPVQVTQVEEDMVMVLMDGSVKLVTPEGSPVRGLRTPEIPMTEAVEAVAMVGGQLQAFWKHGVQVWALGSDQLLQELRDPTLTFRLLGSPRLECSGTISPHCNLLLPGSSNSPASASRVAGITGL

MAP3K9, construct: aa132-413 (from UniProt P80192)
relative phosphorylation
Settings | at +1 | at +2 | at +3 | at +4 | at -1 | at -2 | at -3 | at -4 | at -5
A fixed | 0.832 | 0.66 | 0.89 | 0.949 | 0.791 | 0.914 | 1.07 | 1.13 | 1.12
D fixed | 0.308 | 0.362 | 0.612 | 0.652 | 1.02 | 1.23 | 1.16 | 1.57 | 1.45
E fixed | 0.492 | 0.46 | 0.619 | 0.719 | 0.854 | 1.03 | 1.38 | 1.45 | 1.3
F fixed | 1.61 | 0.594 | 1.44 | 0.823 | 1.19 | 1.33 | 1.14 | 0.824 | 0.978
G fixed | 0.686 | 0.727 | 0.991 | 1.02 | 0.525 | 0.932 | 1.21 | 1.18 | 1.13
H fixed | 1.23 | 1.66 | 1.28 | 0.995 | 1.3 | 1.13 | 1.1 | 0.955 | 0.984
I fixed | 1.3 | 0.627 | 0.865 | 0.842 | 0.899 | 0.715 | 0.785 | 0.734 | 0.887
K fixed | 1.19 | 2.81 | 1.59 | 1.94 | 1.07 | 0.523 | 0.688 | 0.998 | 0.882
L fixed | 0.969 | 0.598 | 1.11 | 0.841 | 1.08 | 0.824 | 0.792 | 0.759 | 0.737
M fixed | 1.28 | 0.522 | 0.995 | 0.952 | 1.25 | 0.931 | 0.863 | 0.929 | 0.827
N fixed | 0.689 | 0.836 | 0.797 | 0.946 | 1.1 | 1.07 | 1.04 | 0.951 | 1.08
P fixed | 0.208 | 0.36 | 0.501 | 1.04 | 0.775 | 1.57 | 1.15 | 0.99 | 0.9
Q fixed | 1.2 | 0.907 | 0.741 | 0.943 | 0.924 | 1.08 | 0.925 | 0.934 | 0.901
R fixed | 1.55 | 3.45 | 1.47 | 1.8 | 1.26 | 0.817 | 0.946 | 1.14 | 1.05
V fixed | 1.49 | 0.602 | 0.796 | 0.767 | 0.873 | 0.701 | 0.798 | 0.83 | 0.908
W fixed | 1.19 | 0.687 | 1.19 | 1.05 | 0.969 | 1.13 | 0.881 | 0.892 | 0.907
Y fixed | 0.772 | 1.13 | 1.12 | 0.72 | 1.13 | 1.07 | 1.08 | 0.745 | 0.958
pThr fixed | 0.825 | 0.703 | 0.677 | 1.01 | 0.976 | 1.23 | 1.83 | 1.55 | 1.57
pTyr fixed | 0.628 | 0.376 | 0.709 | 0.622 | 1.29 | 1.19 | 1.54 | 1.02 | 1.54

MAP3K20, construct: Full length (from UniProt Q9NYL2)
relative phosphorylation
Settings | at +1 | at +2 | at +3 | at +4 | at -1 | at -2 | at -3 | at -4 | at -5
A fixed | 0.455 | 0.721 | 0.832 | 0.953 | 0.78 | 0.903 | 1.01 | 0.913 | 1.12
D fixed | 0.247 | 0.439 | 0.477 | 0.582 | 1.46 | 1.01 | 0.926 | 1.29 | 1
E fixed | 0.359 | 0.359 | 0.543 | 0.629 | 0.797 | 0.946 | 1.13 | 1.14 | 0.884
F fixed | 1.58 | 0.694 | 1.11 | 0.722 | 0.853 | 1.03 | 0.835 | 0.894 | 0.925
G fixed | 0.282 | 0.564 | 0.99 | 1.06 | 1.22 | 1.45 | 1.18 | 1.16 | 1.09
H fixed | 1.07 | 2.45 | 1.13 | 1.14 | 1.79 | 1.61 | 1.2 | 1.13 | 1.1
I fixed | 2.51 | 0.692 | 1.08 | 0.729 | 0.394 | 0.631 | 0.772 | 0.72 | 0.733
K fixed | 0.486 | 1.57 | 1.45 | 2.05 | 1.01 | 0.509 | 0.819 | 1.08 | 1.39
L fixed | 1.3 | 0.646 | 1.07 | 0.672 | 0.679 | 0.858 | 0.952 | 0.736 | 0.812
M fixed | 0.981 | 0.758 | 0.972 | 0.818 | 1.13 | 0.812 | 0.915 | 0.849 | 0.822
N fixed | 0.473 | 0.996 | 0.822 | 0.946 | 1.63 | 1.12 | 1.28 | 1.19 | 1.11
P fixed | 0.261 | 0.41 | 0.771 | 1.16 | 0.632 | 0.693 | 1.23 | 1.07 | 1.03
Q fixed | 0.629 | 0.894 | 0.896 | 1.04 | 1.08 | 0.977 | 0.892 | 0.932 | 0.914
R fixed | 0.557 | 2.15 | 1.42 | 1.72 | 1.12 | 0.662 | 1.01 | 1.11 | 1.14
V fixed | 2.5 | 0.779 | 0.984 | 0.69 | 0.461 | 0.647 | 0.841 | 0.76 | 0.772
W fixed | 1.27 | 1.08 | 1.25 | 1.19 | 0.778 | 2.07 | 1.11 | 1.07 | 1.14
Y fixed | 2.03 | 1.8 | 1.21 | 0.895 | 1.18 | 1.07 | 0.909 | 0.959 | 1.01
pThr fixed | 0.837 | 0.564 | 0.781 | 0.663 | 0.615 | 1.09 | 1.34 | 1.2 | 1.22
pTyr fixed | 0.662 | 0.528 | 0.72 | 0.694 | 0.997 | 0.935 | 1.06 | 0.797 | 1.04

MAP4K1, construct: Full length (from UniProt Q92918)
relative phosphorylation
Settings | at +1 | at +2 | at +3 | at +4 | at -1 | at -2 | at -3 | at -4 | at -5
A fixed | 0.465 | 0.82 | 0.882 | 0.928 | 0.991 | 1.1 | 0.946 | 0.951 | 1.07
D fixed | 0.192 | 0.786 | 0.471 | 0.756 | 0.585 | 0.362 | 0.52 | 0.653 | 0.679
E fixed | 0.199 | 0.706 | 0.454 | 0.629 | 0.441 | 0.302 | 0.487 | 0.699 | 0.613
F fixed | 1.23 | 0.581 | 0.893 | 0.879 | 0.987 | 1.36 | 0.908 | 1.14 | 1.11
G fixed | 0.58 | 0.957 | 0.933 | 1.13 | 1.79 | 1.06 | 1.21 | 1.29 | 1.15
H fixed | 0.575 | 1.13 | 1.04 | 1.08 | 1.37 | 1.36 | 1.3 | 1.08 | 1.07
I fixed | 1.91 | 0.442 | 0.571 | 0.806 | 0.342 | 0.646 | 0.545 | 0.706 | 0.763
K fixed | 0.56 | 2.51 | 1.8 | 1.65 | 1.24 | 1.11 | 1.93 | 1.26 | 1.49
L fixed | 3.52 | 0.604 | 0.724 | 0.863 | 1.17 | 0.667 | 0.694 | 0.798 | 0.746
M fixed | 2.94 | 0.695 | 0.763 | 0.861 | 1.26 | 0.794 | 0.823 | 0.896 | 0.934
N fixed | 0.442 | 0.974 | 0.925 | 0.978 | 1.3 | 0.931 | 0.928 | 0.849 | 0.88
P fixed | 0.396 | 1.17 | 1.13 | 1.02 | 0.534 | 0.62 | 0.766 | 0.955 | 1.09
Q fixed | 0.5 | 0.869 | 0.837 | 0.958 | 0.745 | 0.679 | 0.904 | 0.888 | 0.83
R fixed | 0.573 | 2.9 | 2.98 | 1.62 | 1.62 | 1.6 | 2.01 | 1.39 | 1.34
V fixed | 0.584 | 0.521 | 0.654 | 0.815 | 0.438 | 0.798 | 0.634 | 0.828 | 0.895
W fixed | 1.45 | 0.627 | 0.991 | 1.14 | 0.909 | 1.51 | 1.28 | 1.37 | 1.15
Y fixed | 0.877 | 0.706 | 0.942 | 0.887 | 1.27 | 2.1 | 1.11 | 1.24 | 1.2
pThr fixed | 1.32 | 1.33 | 1.14 | 0.786 | 0.699 | 1.1 | 1.22 | 1.25 | 1.32
pTyr fixed | 0.373 | 0.593 | 0.669 | 0.602 | 0.86 | 0.653 | 0.977 | 0.948 | 1.04

MAPK1, construct: Full length (from UniProt P28482)
relative phosphorylation
Settings | at +1 | at +2 | at +3 | at +4 | at -1 | at -2 | at -3 | at -4 | at -5
A fixed | 0.973 | 0.668 | 0.858 | 0.681 | 0.711 | 0.878 | 1 | 0.906 | 0.914
D fixed | 0.121 | 0.537 | 0.684 | 0.75 | 0.577 | 0.465 | 1.09 | 1.21 | 1.23
E fixed | 0.0909 | 0.28 | 0.721 | 0.679 | 0.447 | 0.486 | 1.19 | 1.28 | 0.955
F fixed | 0.427 | 1.43 | 1.46 | 1.18 | 0.906 | 0.58 | 0.839 | 0.886 | 1.02
G fixed | 0.756 | 1.02 | 0.866 | 0.753 | 0.711 | 0.513 | 1.06 | 1.02 | 1.02
H fixed | 0.474 | 1.66 | 1.37 | 1.17 | 1.23 | 0.622 | 1.02 | 1.06 | 1.21
I fixed | 0.235 | 0.91 | 1.05 | 1.15 | 0.727 | 1.49 | 0.814 | 1.08 | 0.752
K fixed | 0.472 | 1.6 | 0.821 | 1.55 | 1.59 | 0.547 | 0.723 | 1.01 | 1.07
L fixed | 0.426 | 1.26 | 1.15 | 1 | 1.43 | 1.87 | 0.915 | 0.817 | 0.912
M fixed | 0.4 | 1.16 | 1.13 | 1.11 | 1.35 | 1.35 | 1.07 | 0.993 | 0.812
N fixed | 0.216 | 1.06 | 0.676 | 0.933 | 0.86 | 0.776 | 1.11 | 1.02 | 1.07
P fixed | 10.5 | 0.399 | 1.05 | 0.748 | 0.916 | 3.03 | 1.48 | 0.895 | 0.946
Q fixed | 0.289 | 0.785 | 0.682 | 0.96 | 1.25 | 1.1 | 1.15 | 1.09 | 1.03
R fixed | 0.442 | 1.67 | 0.931 | 1.07 | 1.76 | 0.901 | 1.11 | 1.11 | 1.18
V fixed | 0.256 | 0.8 | 0.799 | 0.853 | 0.669 | 1.34 | 0.79 | 0.643 | 0.689
W fixed | 0.453 | 0.885 | 1.41 | 1.3 | 0.828 | 0.512 | 0.807 | 1.04 | 1.05
Y fixed | 0.439 | 0.869 | 1.35 | 1.1 | 1.04 | 0.549 | 0.838 | 0.945 | 1.15
pThr fixed | 0.432 | 0.683 | 0.642 | 0.847 | 0.381 | 1.05 | 1.2 | 1.18 | 1.16
pTyr fixed | 0.517 | 0.404 | 1.01 | 0.861 | 0.351 | 0.691 | 1.31 | 0.918 | 1.18

— the supplement of paper PMC9876800
